Non-standard residues stand in square brackets, D forms with d. Residues, ends and D or L forms follow the SMILES beside them. No end group written: not given here. pY = N[C@@H](Cc1ccc(OP(=O)(O)O)cc1)C(=O)O
Legend:
STAT6 [1] = molecular target: T1, STAT6 (UniProt P42226 1-847, limits assumed); assay: binding affinity of the phosphorylated receptor peptide for STAT6; method not stated at the table (paragraph 32 speaks of IC50)
T1 construct: also called STAT6 polypeptide
T1 sequence (looked up): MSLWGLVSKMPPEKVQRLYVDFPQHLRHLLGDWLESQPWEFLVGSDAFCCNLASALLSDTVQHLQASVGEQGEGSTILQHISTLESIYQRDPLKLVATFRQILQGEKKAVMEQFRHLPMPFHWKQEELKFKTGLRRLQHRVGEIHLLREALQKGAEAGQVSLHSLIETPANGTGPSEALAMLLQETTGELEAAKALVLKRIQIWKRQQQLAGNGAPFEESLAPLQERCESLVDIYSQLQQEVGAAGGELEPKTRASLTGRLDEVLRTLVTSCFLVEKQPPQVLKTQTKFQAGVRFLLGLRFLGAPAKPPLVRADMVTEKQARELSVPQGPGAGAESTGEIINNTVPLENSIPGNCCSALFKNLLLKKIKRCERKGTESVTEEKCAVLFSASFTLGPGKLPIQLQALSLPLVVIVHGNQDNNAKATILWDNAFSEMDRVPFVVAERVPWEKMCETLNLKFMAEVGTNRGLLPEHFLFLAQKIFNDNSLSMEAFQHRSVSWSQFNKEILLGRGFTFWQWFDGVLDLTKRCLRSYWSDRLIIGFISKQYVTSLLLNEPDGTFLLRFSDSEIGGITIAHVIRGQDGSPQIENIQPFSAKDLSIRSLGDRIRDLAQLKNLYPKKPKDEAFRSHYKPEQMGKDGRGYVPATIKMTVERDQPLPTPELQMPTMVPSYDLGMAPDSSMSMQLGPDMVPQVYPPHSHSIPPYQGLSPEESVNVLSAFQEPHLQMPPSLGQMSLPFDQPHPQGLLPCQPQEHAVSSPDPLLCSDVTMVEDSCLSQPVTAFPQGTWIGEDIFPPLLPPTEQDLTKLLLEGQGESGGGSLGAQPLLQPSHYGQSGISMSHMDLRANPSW

STAT6 [2] = molecular target: T2, STAT6 (Homo sapiens, UniProt P42226); assay: STAT6 binding to phosphotyrosine receptor peptides (IC50 / binding affinity)
T2 sequence (P42226 1-847): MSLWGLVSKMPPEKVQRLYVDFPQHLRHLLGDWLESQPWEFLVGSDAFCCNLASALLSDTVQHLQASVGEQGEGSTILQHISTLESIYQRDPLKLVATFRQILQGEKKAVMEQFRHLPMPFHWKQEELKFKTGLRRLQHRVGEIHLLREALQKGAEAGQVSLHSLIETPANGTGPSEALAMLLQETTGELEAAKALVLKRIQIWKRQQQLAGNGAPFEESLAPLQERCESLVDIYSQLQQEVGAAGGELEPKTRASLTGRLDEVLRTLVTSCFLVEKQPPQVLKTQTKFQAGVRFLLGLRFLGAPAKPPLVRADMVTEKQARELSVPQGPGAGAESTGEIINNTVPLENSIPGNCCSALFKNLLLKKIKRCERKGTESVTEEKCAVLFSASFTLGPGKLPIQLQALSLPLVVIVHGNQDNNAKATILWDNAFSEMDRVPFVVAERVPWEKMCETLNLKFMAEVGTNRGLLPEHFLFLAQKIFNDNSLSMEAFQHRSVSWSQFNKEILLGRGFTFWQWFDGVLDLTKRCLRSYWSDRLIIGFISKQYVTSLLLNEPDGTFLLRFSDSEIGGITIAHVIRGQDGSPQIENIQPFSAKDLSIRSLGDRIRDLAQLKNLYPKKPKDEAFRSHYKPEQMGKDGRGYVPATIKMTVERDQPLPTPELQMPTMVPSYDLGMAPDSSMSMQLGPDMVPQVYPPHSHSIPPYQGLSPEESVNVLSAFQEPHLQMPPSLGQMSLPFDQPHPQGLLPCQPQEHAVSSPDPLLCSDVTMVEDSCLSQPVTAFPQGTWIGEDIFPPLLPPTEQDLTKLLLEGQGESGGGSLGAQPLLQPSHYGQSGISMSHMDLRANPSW

STAT6 [3] = molecular target: T2, STAT6; assay: Chemiluminescence binding assay, signal to noise, STAT6
Method: (§1) The assays of the invention can be conducted as an ELISA assay, using a 96-well microplate format or a larger format if desired. In one embodiment, a phosphotyrosine-containing receptor peptide is incubated with a protein which contains an SH2 domain (e.g., a STAT polypeptide) to provide opportunity for the SH2 domain containing protein to bind the peptide. The peptide is preferably bound to a tag, e.g., biotin, at the amino terminus of the peptide. There can be a spacer between the tag and the peptide. The solution is placed in wells of a 96-well microplate that are coated with a tag binder, e.g., streptavidin. Reduction of background is achieved by incubating, in a separate reaction, a primary antibody specific for the SH2 domain containing protein and a secondary antibody specific for the first antibody which is to bind to the SH2 domain containing protein. The secondary antibody has conjugated to it a substrate for detection. The antibodies bind and form a binding pair of antibodies Ab1 and Ab2. Ab1 remains available to bind the SH2 domain containing protein for which it is specific. Ab2 remains conjugated to a substrate for chemiluminescence detection later.
(§2) The solution containing binding pairs of primary and secondary antibodies bound together is then added to the microwells that already contain the bound streptavidin, biotinylated receptor peptide and an SH2 domain containing protein bound to the receptor peptide. […]
(§3) An alternate method for conducting the assay involves preincubating the SH2 domain containing protein with the primary antibody that is specific for the SH2 domain containing protein. […] After allowing time for the SH2-antibody complex to bind the biotinylated peptide bound to streptavidin, a second antibody specific for the first antibody is added, and the presence of the second antibody is detected as before, using a chemiluminescence reaction with either alkaline phosphatase detection or horse radish peroxidase detection. […]

STAT1 = molecular target: T3, STAT1 (Homo sapiens, UniProt P42224); assay: Chemiluminescence binding assay, signal to noise, STAT1; parameters: key: high signal relative to background = + + + +
T3 sequence (P42224 1-750): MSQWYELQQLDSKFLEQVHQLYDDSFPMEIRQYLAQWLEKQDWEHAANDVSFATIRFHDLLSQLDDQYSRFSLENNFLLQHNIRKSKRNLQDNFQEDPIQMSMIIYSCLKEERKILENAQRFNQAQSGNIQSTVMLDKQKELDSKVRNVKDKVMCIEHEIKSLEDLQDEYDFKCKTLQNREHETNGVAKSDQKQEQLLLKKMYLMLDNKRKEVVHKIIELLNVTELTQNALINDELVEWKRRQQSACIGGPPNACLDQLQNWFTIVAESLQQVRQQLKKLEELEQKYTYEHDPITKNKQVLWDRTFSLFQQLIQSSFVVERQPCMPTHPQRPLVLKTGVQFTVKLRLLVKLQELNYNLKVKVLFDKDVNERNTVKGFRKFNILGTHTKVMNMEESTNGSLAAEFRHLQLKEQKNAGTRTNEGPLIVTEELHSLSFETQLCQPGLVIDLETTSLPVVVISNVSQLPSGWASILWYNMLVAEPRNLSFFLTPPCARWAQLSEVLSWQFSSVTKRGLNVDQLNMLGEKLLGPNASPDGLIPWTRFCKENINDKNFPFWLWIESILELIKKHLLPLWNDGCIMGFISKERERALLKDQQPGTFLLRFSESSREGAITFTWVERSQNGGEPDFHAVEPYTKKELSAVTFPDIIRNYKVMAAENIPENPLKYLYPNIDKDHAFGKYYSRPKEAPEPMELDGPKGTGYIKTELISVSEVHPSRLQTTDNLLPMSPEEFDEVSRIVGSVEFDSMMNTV
Method: as §1, §2, §3

STAT4 = molecular target: T4, STAT4 (Homo sapiens, UniProt Q14765); assay: Chemiluminescence binding assay, signal to noise, STAT4; parameters: key: high signal relative to background = + + + +
T4 sequence (Q14765 1-748): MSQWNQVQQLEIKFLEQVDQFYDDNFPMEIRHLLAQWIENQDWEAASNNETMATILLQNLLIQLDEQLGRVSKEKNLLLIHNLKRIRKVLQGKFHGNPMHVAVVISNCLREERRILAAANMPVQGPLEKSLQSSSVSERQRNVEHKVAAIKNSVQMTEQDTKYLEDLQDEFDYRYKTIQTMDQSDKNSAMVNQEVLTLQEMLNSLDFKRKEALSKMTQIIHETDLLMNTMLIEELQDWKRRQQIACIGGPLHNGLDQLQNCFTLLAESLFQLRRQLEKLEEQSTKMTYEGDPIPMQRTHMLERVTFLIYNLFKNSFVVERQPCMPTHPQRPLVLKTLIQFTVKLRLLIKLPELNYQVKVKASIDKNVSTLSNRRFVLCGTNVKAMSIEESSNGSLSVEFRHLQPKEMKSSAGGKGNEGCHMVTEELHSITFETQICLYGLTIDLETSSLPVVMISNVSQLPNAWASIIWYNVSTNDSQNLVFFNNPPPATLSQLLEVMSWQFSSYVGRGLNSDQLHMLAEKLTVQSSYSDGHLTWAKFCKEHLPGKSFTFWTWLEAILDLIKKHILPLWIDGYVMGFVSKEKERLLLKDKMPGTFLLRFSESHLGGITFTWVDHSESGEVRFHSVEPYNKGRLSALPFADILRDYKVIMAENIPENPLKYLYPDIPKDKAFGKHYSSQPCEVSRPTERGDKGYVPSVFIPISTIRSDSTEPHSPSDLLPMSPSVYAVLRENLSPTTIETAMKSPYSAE
Method: as §1, §2, §3

Ac-Y^PVPW-NH2 (peptide)
BINDING AFFINITY (STAT6 [1]): 1.2 µM

CC[C@H](C)[C@H](NC(=O)[C@H](CC(C)C)NC(=O)[C@H](CC(=O)O)NC(=O)[C@H](CCC(N)=O)NC(=O)[C@H](Cc1c[nH]c2ccccc12)NC(=O)[C@@H]1CCCN1C(=O)[C@@H](NC(=O)[C@H](Cc1ccc(OP(=O)(O)O)cc1)NC(=O)CNC(=O)[C@@H](N)CCC(=O)O)C(C)C)C(=O)O [EGY^PVPWQDLI] (HELM PEPTIDE1{E.G.[O=C([C@H](Cc1ccc(OP(=O)(O)O)cc1)N[*:1])[*:2]].V.P.W.Q.D.L.I}$$$$V2.0)
IC50 (STAT6 [2]): 610 nM | signal relative to background, STAT6 (STAT6 [3]; Ab1/Ab2 preincubation): + + + + + | signal relative to background, STAT6 (STAT6 [3]; STAT4/Ab preincubation (so in the source)): + + + + + | signal relative to background, STAT6 (STAT6 [3]; Standard assay): + +

Ac-Y^PKPF-NH2 (peptide)
BINDING AFFINITY (STAT6 [1]): 22 µM

CC(=O)N[C@@H](Cc1ccc(OP(=O)(O)O)cc1)C(=O)N[C@@H](CCCCN)C(=O)N1CCC[C@H]1C(=O)N[C@@H](Cc1ccccc1)C(N)=O [Ac-Y^PKPF-NH2, reference compound] (HELM PEPTIDE1{[ac].[O=C([C@H](Cc1ccc(OP(=O)(O)O)cc1)N[*:1])[*:2]].K.P.F.[am]}$$$$V2.0)
IC50 (STAT6 [2]): 22000 nM

CC(C)C[C@H](NC(=O)[C@@H](NC(=O)[C@H](Cc1c[nH]cn1)NC(=O)[C@@H]1CCCN1C(=O)[C@H](CCCCN)NC(=O)[C@H](CC(=O)O)NC(=O)[C@H](Cc1ccc(OP(=O)(O)O)cc1)NC(=O)CNC(=O)[C@H](Cc1ccccc1)NC(=O)[C@@H](N)CO)C(C)C)C(=O)O [SFGY*DKPHVL, reference compound] (HELM PEPTIDE1{S.F.G.[O=C([C@H](Cc1ccc(OP(=O)(O)O)cc1)N[*:1])[*:2]].D.K.P.H.V.L}$$$$V2.0)
IC50 (STAT6 [2]): > 100000 nM

CC(=O)N[C@@H](Cc1ccc(OP(=O)(O)O)cc1)C(=O)N[C@H](C(=O)N1CCC[C@H]1C(=O)N[C@@H](Cc1c[nH]c2ccccc12)C(=O)N[C@@H](CCC(N)=O)C(N)=O)C(C)C [Ac-Y^PVPWQ-NH2] (HELM PEPTIDE1{[ac].[O=C([C@H](Cc1ccc(OP(=O)(O)O)cc1)N[*:1])[*:2]].V.P.W.Q.[am]}$$$$V2.0)
IC50 (STAT6 [2]): 1500 nM

GY^PDMPHVL: phosphotyrosine receptor peptide for STAT4 (also binds STAT1) (G[pY]DMPHVL)
signal relative to background, STAT1 (STAT1; Ab1/Ab2 preincubation): + + + + | signal relative to background, STAT1 (STAT1; STAT1/Ab preincubation): + + + + | signal relative to background, STAT1 (STAT1; Standard assay): + + | signal relative to background, STAT4 (STAT4; Ab1/Ab2 preincubation): + + + + | signal relative to background, STAT4 (STAT4; STAT4/Ab preincubation): + + + + | signal relative to background, STAT4 (STAT4; Standard assay): + +

— patent publication US6682898B2, “High-throughput screening assays for modulators of STAT4 activity” (Tularik Inc., priority 1998, dated 2004)
